Experiments:
U937 human tumor cells = experiment: Cell Death Detection ELISA apoptosis assay, U937; assay type: cell-based; settings: mammalian expressed TRAIL supernatants; commercial human TRAIL and Fas ligand 100 ng/ml (FIGS. 19B, 20B, 21B)
Experimental: 4. Cell Death Detection ELISA Plus assay for apoptosis. The assay is based on a quantitative sandwich-enzyme-immunoassay-principle using mouse monoclonal antibodies directed against DNA and histones, respectively. This allows the specific determination of mono- and oligonucleosomes in the cytoplasmatic fraction of cell lysates. Roche kit, Cat. # 1 774 425, was used for this assay. 0.1 ml of U937 or any other types of cells (2×104 ) and 0.1 ml of tissue culture supernatant or other solutions containing apoptosis inducing agents (e.g. TRAIL) were used for this assay in 48-well plate. After 24 or 48 hrs of incubation at 3 7° C., the cells were spun at 2,000 rpm for 10 minutes. Cell pellet was then resuspended in 200 ul lysis buffer and incubated for 30 minutes at room temperature. The cell lysate was then centrifuged at 2,000 rpm for 10 minutes and diluted at 1:10 with incubation buffer. 20 ul of diluted lysate was added to coated plate (MTP from kit) and 80 ul of the immunoreagent was added to each well. MTP was then covered with adhesive cover foil and incubated under gentle shaking for 2 hours at room temperature. The solution was then removed thoroughly by tapping and subsequently rinsed 3 times with 250 ul incubation buffer. 100 ul ABTS solution was added and incubated on a plate shaker at 250 rpm for 15 minutes. Readings at 405 nm and 490 nm (background) were done on ELISA reader. […]

Normal dog hepatocytes = experiment: Cell Death ELISA apoptosis assay, normal dog hepatocytes; assay type: cell-based; settings: mammalian expressed TRAIL supernatants; Fas ligand 100 ng/ml (FIG. 21B)
Experimental: 4. Cell Death Detection ELISA Plus assay for apoptosis. The assay is based on a quantitative sandwich-enzyme-immunoassay-principle using mouse monoclonal antibodies directed against DNA and histones, respectively. This allows the specific determination of mono- and oligonucleosomes in the cytoplasmatic fraction of cell lysates. Roche kit, Cat. # 1 774 425, was used for this assay. 0.1 ml of U937 or any other types of cells (2×104 ) and 0.1 ml of tissue culture supernatant or other solutions containing apoptosis inducing agents (e.g. TRAIL) were used for this assay in 48-well plate. After 24 or 48 hrs of incubation at 3 7° C., the cells were spun at 2,000 rpm for 10 minutes. Cell pellet was then resuspended in 200 ul lysis buffer and incubated for 30 minutes at room temperature. The cell lysate was then centrifuged at 2,000 rpm for 10 minutes and diluted at 1:10 with incubation buffer. 20 ul of diluted lysate was added to coated plate (MTP from kit) and 80 ul of the immunoreagent was added to each well. MTP was then covered with adhesive cover foil and incubated under gentle shaking for 2 hours at room temperature. The solution was then removed thoroughly by tapping and subsequently rinsed 3 times with 250 ul incubation buffer. 100 ul ABTS solution was added and incubated on a plate shaker at 250 rpm for 15 minutes. Readings at 405 nm and 490 nm (background) were done on ELISA reader.
3. […]

hepatocyte = settings: literature (Lawrence et al. 2001); cited from earlier work
various tumor cell lines = settings: literature (Walczak 1999; Wiley 1995; Pitti 1996); cited from earlier work
[1] = system: nontransformed, normal cells; settings: literature (Walczak 1999; Wiley 1995; Pitti 1996); cited from earlier work
human tumors = settings: mice and nonhuman primates; literature (Walczak 1999; Ashkenazi 1999); cited from earlier work
[2] = system: isolated human heptocytes; settings: literature (Jo et al. 2000); cited from earlier work
non-human hepatocytes = settings: literature (Jo et al. 2000); cited from earlier work

## Fas ligand: Fas ligand (100 ng/ml, Upstate Biotechnology), control; well known agent which causes liver toxicity in vivo [reference compound]
U937 human tumor cells
  induction of apoptosis of U937 cells, in words: sensitive
Normal dog hepatocytes
  apoptosis of normal dog hepatocytes, in words: very sensitive

## His-tagged TRAIL: His-tagged recombinant TRAIL version, Lawrence et al. 2001
hepatocyte
  hepatocyte toxicity (apoptosis) of recombinant TRAIL versions: induced substantial apoptosis

## TRAIL protein: TNF-related apoptosis-inducing ligand as reported in the literature
Various tumor cell lines
  apoptosis in various tumor cell lines: induce apoptosis
[1]
  apoptosis in nontransformed, normal cells: not in nontransformed, normal cells
Human tumors
  apoptosis in human tumors after administration of TRAIL: can induce apoptosis in human tumors
  cytotoxicity in normal organs or tissues: no cytotoxicity

## native form of soluble TRAIL protein: native form of soluble TRAIL protein, Lawrence et al. 2001
hepatocyte
  hepatocyte toxicity (apoptosis) of recombinant TRAIL versions: no effect

## polyhistidine-tagged recombinant human TRAIL (residues 114-281): polyhistidine-tagged recombinant human TRAIL (residues 114-281), Jo et al. 2000
[2]
  apoptosis in vitro in isolated human hepatocytes: induce apoptosis
non-human hepatocytes
  apoptosis in vitro in non-human hepatocytes: not in non-human hepatocytes

Source: US20040146896A1, “Methods and compositions for diagnosing and treating companion animal cancer” (priority 2002, published 2004)
